Test [1] deals with Siz1^(167–449) (yeast) (UniProt Q04195).
The target in test [2] is Siz1^(167–449)-ΔN18Smt3^K19R/D68RΔGG97/98-L-E-His6 (yeast) (UniProt Q04195).
For test [3], the target named is Siz1^(167–449)-ΔN18Smt3^K19RΔGG97/98-L-E-His6 (yeast) (UniProt Q04195).
Test [4] concerns the target Siz1^(167–508) (yeast) (UniProt Q04195).
Test [5] has as its target Siz1^(167–508)-ΔN18Smt3^K19R/D68RΔGG97/98-L-E-His6 (yeast) (UniProt Q04195).

Siz1^(167–449) (yeast), sequence (Q04195 167-449): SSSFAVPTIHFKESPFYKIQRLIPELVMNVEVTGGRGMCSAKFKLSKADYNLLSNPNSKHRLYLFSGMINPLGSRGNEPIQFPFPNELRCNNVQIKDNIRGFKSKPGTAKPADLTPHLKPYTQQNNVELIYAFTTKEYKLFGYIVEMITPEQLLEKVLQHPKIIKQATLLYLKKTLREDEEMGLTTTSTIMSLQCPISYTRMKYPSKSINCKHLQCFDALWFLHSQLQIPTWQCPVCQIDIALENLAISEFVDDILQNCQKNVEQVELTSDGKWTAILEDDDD
Siz1^(167–508) (yeast), sequence (Q04195 167-508): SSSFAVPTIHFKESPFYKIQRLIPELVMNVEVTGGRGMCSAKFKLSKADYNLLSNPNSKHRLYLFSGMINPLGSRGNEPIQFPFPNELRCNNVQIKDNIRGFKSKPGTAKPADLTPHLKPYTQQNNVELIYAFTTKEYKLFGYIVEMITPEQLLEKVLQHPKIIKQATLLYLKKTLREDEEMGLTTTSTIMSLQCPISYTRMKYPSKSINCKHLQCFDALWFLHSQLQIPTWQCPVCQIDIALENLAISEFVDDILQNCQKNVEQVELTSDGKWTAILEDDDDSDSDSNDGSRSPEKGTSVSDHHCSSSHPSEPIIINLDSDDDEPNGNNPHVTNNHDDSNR
Siz1^(167–449)-ΔN18Smt3^K19R/D68RΔGG97/98-L-E-His6 (yeast), sequence (Q04195 whole entry, looked up, stated change not applied, tested part not stated): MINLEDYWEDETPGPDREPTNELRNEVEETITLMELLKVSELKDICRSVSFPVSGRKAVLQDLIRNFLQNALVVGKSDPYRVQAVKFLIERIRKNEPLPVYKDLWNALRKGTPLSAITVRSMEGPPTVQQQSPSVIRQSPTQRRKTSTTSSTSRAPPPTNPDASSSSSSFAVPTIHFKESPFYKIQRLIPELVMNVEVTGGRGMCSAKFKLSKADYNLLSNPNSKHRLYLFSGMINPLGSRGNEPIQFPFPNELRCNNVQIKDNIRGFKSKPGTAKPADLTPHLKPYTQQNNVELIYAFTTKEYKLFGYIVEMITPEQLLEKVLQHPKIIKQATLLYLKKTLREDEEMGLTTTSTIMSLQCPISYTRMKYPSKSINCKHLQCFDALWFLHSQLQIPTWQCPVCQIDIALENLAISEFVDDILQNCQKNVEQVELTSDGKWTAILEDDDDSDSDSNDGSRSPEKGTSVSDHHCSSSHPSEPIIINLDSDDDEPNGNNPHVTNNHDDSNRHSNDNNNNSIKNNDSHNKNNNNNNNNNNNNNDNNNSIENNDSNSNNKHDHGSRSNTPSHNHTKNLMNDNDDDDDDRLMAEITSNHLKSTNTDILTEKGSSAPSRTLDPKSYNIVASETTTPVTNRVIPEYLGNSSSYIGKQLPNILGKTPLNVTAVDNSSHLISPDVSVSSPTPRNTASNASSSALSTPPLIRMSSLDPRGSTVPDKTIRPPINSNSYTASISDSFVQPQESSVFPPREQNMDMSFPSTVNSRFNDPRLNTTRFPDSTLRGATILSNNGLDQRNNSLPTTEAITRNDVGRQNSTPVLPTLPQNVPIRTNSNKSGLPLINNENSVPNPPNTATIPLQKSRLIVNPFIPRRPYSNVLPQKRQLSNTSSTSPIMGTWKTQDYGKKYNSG
Siz1^(167–449)-ΔN18Smt3^K19RΔGG97/98-L-E-His6 (yeast), sequence (Q04195 whole entry, looked up, stated change not applied, tested part not stated): as above
Siz1^(167–508)-ΔN18Smt3^K19R/D68RΔGG97/98-L-E-His6 (yeast), sequence (Q04195 whole entry, looked up, stated change not applied, tested part not stated): as above

Turning to “Ubc9^K153R-Smt3^K11C/D68R-Alexa488 thioester (from UniProt P50623 1-157; Q12306 1-101) (complex)”, in test [1], the Km of the E2-SUMO thioester, K127 product, no additional SUMO worked out at 1.23 µM; the Km of the E2-SUMO thioester, K127 product, with 1.5-fold excess Δ18Smt3ΔGGHIS was 1.84 µM; the Km of the E2-SUMO thioester, K164 product, no additional SUMO came to 0.91 µM; the Km of the E2-SUMO thioester, K164 product, with 1.5-fold excess Δ18Smt3ΔGGHIS came to 1.44 µM. Moreover, in test [2], the Km of the E2-SUMO thioester, K127 product amounted to 4.4 µM and the Km of the E2-SUMO thioester, K164 product stood at 1.02 µM. In addition, the Km of the E2-SUMO thioester, K127 product in test [3] is 0.48 µM. Besides, in test [4], the Km of the E2-SUMO thioester, K127 product, no additional SUMO was 2.34 µM; the Km of the E2-SUMO thioester, K127 product, with 1.5-fold excess Δ18Smt3ΔGGHIS was 1.15 µM; the Km of the E2-SUMO thioester, K164 product, no additional SUMO was 0.91 µM. The Km of the E2-SUMO thioester, K127 product in test [5] came to 2.07 µM.

The values above are taken from PMC5019495.
